Experimental data from paper PMC2599858.

What was measured:
eGFP-CaMKII = eGFP-CaMKII (UniProt P11275); assay: number and brightness
[1] = target: nonlabeled αCaMKII (Ca2+/CaM-dependent protein kinase II, alpha) (UniProt P11275); assay: number and brightness

Sequence of eGFP-CaMKII (P11275 whole entry): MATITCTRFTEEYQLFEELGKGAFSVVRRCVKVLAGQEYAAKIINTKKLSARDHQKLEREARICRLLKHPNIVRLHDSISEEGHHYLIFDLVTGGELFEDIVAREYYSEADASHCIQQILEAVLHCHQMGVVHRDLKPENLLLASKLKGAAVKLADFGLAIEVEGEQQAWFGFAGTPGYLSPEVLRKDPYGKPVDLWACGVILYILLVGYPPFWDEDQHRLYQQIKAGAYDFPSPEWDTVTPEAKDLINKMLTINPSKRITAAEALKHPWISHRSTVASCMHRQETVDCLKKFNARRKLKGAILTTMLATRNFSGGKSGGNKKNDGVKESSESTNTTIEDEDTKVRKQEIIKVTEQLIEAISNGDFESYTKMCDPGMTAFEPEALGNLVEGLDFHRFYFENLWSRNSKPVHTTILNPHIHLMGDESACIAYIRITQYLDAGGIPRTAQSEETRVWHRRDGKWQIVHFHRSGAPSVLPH

| stoichiometry N (eGFP-CaMKII) | molecular brightness, times that of eGFP (times that of eGFP) [1] | Substance |
| --- | --- | --- |
| > 3 |  | eGFP-CaMKII (from UniProt P11275 1-478) (enzyme) |
|  | 3 | enhanced green fluorescent protein (eGFP)-CaM (from UniProt P0DP23 1-149) (natural protein) |
